Target: T1, angiogenin (Homo sapiens, UniProt P03950)
T1 construct: purchased R&D systems, Inc., Minneapolis
Assay: Affinity-selection (biopanning) of Ph.D.-12 phage library against angiogenin, DNA sequencing of plaques
Format: binding
Conditions: after fourth round of affinity-selection
Procedure: Phage affinity-selection (biopanning) procedure was performed by following the standard protocol with minor modifications (FIG. 1). The target protein angiogenin (R&D systems, Inc., Minneapolis) used for biopanning was diluted to 20, 4, 0.8 and 0.16 μg/mL in 0.1 M NaHCO3 (pH=8.6) in the first, second, third and fourth round, respectively. During each round, 400 μL of angiogenin with designated concentration, was added into a well (diameter is 15.6 mm) of the 24 well cell culture plate (Cat. #: 142475, Thermo Fisher Scientific), and incubated overnight at 4° C. with the lid on in a humidified container. Then the supernatant was pipetted out and the plate was firmly slapped face down on a paper towel to remove the residual solution. Afterwards, 500 μL of blocking buffer (5 mg/mL BSA, 0.1M NaHCO3) was added into the well and incubated for 3 h at 4° C., after which the supernatant was discarded. […]
A small amount (5 μL) of the above eluate mixture was diluted 10-fold with PBS buffer. […] The titer was calculated by this equation: titer=1000×N×M pfu/mL, where N and M are the dilution factor and the number of the blue phage plaques on a plate, respectively. […]

T1 sequence (P03950 25-147): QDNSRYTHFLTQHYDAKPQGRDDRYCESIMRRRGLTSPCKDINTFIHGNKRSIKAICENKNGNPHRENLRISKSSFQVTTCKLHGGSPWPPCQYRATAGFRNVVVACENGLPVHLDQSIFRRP

| Sequence | repeats of the peptide sequence among 57 sequenced plaques |
| --- | --- |
| FHHPSIHDRHRH (PEPTIDE (1)..(12) Completely synthesized in the lab - Ph.D.-12 Phage Display Peptide Library) [FH peptide] | 4 repeats |
| WPYWNHHSHNNV (PEPTIDE (1)..(12) Completely synthesized in the lab - Ph.D.-12 Phage Display Peptide Library) [WV peptide] | 11 repeats |

Source: patent publication US11839642B2, “Anti-angiogenin peptides, compositions, and methods of use” (The Board of Regents of the University of Oklahoma, priority 2018, dated 2023)
